Data as given in patent publication US20100260668A1 (published 2010).

T1: PlGF (Placental GF) (UniProt P49763-2 21-149, limits assumed)
T1 construct: Bought reagent
T1 sequence (looked up): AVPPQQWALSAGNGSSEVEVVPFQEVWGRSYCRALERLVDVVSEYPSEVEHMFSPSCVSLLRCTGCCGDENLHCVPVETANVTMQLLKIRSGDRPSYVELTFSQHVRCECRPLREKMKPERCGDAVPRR


How the values were obtained:
[1] = biological target: T2, human DLL4 extracellular domain (human, UniProt Q9NR61 27-529, biotin label in the Notch-1 competition ELISA (sites not given)); assay: competition ELISA: biotin-labelled human DLL4 ECD pre-mixed with DVD-Ig, then on coated human Notch-1 (competitor Notch-1)
T2 construct: extracellular domain; also called biotin labeled human DLL4 extracellular domain

[2] = biological target: T3, ErbB3 (ErbB3 ECD/FC Chimera-His tag) (UniProt P21860 20-643, limits assumed); assay: Direct Bind ELISA, antigen on plate
T3 construct: extracellular domain; Bought reagent
Procedure: (§1) Enzyme Linked Immunosorbent Assays to screen for antibodies that bind a desired target antigen were performed as follows. […] Plates were washed four times with PBS containing 0.02% Tween 20. Plates were blocked by the addition of 300 μL/well blocking solution (non-fat dry milk powder, various retail suppliers, diluted to 2% in PBS) for ½ hour at room temperature. Plates were washed four times after blocking with PBS containing 0.02% Tween 20.
(§2) Alternatively, one hundred microliters per well of 10 μg/ml of Histidine (His) tagged desired target antigen (R&D Systems, Minneapolis, Minn.) was added to ELISA plates coated with monoclonal mouse anti-polyHistidine antibody as described above and incubated for 1 hour at room temperature. Wells were washed four times with PBS containing 0.02% Tween 20.
(§3) One hundred microliters of antibody or DVD-Ig preparations diluted in blocking solution as described above was added to the desired target antigen plate or desired target antigen/FC fusion plate or the anti-polyHistidine antibody/His tagged desired target antigen plate prepared as described above and incubated for 1 hour at room temperature. Wells are washed four times with PBS containing 0.02% Tween 20.

PlGF (Placental GF) = biological target: T1, PlGF (Placental GF); assay: Direct Bind ELISA, antigen on plate; C-terminal VD
Procedure: as §1, §2, §3

[3] = biological target: T4, RON (MSP Receptor ECD-His tag) (UniProt Q04912 25-957, limits assumed); assay: Direct Bind ELISA, antigen on plate; C-terminal VD
T4 construct: extracellular domain; Bought reagent
Procedure: as §1, §2, §3

HGF (HGF-His tag) = biological target: T5, HGF (HGF-His tag) (UniProt P14210 32-728); assay: Direct Bind ELISA, antigen on plate; N-terminal VD
T5 construct: Bought reagent
T5 sequence (P14210 32-728 limits assumed): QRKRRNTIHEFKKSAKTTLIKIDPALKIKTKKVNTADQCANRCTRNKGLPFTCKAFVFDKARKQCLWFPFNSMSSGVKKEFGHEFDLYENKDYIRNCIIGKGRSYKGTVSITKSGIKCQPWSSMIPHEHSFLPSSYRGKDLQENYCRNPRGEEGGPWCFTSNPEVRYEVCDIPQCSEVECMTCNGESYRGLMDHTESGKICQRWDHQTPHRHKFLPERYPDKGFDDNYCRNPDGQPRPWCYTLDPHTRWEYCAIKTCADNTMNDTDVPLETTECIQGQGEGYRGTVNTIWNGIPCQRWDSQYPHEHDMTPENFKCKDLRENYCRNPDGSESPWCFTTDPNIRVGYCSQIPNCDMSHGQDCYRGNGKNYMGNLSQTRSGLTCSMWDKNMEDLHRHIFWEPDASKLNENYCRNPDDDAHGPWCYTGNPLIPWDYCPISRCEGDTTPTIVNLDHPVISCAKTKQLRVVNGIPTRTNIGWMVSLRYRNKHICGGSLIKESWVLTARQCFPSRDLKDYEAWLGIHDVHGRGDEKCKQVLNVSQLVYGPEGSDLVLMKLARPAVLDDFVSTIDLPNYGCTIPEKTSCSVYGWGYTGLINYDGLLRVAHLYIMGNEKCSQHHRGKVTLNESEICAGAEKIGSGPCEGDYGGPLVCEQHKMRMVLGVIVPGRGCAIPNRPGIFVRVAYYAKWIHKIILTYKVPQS

| EC50 [2] | EC50 [3] | Binder | further results |
| --- | --- | --- | --- |
|  |  | DVD258 (PLGF (seq. 1) N-terminal / DLL-4 (seq. 1) C-terminal DVD-Ig) (bispecific antibody, human IgG1, kappa, also called VD258H; VD258L) heavy: not shown light: DIVLTQSPDSLAVSLGERVTMNCKSSQSLLNSGMRKSFLAWYQQKPGQSPKLLIYWASTRESGVPDRFTGSGSGTDFTLTISSVQAEDVAVYYCKQSYHLFTFGSGTKLEIKRTVAAPDIQMTQSPSSLSASVGDRVTITCRASQDVSTAVAWYQQKPGKAPKLLIYSASFLYSGVPSRFSGSGSGTDFTLTISSLQPEDFATTYYCQQSYTGTVTFGQGTKVEIKRTVAAPSVFIFPPSDEQLKSGTASVVCLLNNFYPREAKVQWKVDNALQSGNSQESVTEQDSKDSTYSLSSTLTLSKADYEKHKVYACEVTHQGLSSPVTKSFNRGEC | IC50 [1]: 17.5 nM |
| 1.93 nM |  | AB062 (anti-ErbB3 (seq. 1) parent antibody) (antibody, IgG1, V domains shown, HC vector V1 (wild-type hIgG1 constant), LC vector V2 (kappa constant); also called AB062VH; AB062VL) VH: QVQLQQWGAGLLKPSETLSLTCAVYGGSFSGYYWSWIRQPPGKGLEWIGEINHSGSTNYNPSLKSRVTISVETSKNQFSLKLSSVTAADTAVYYCARDKWTWYFDLWGRGTLVTVSS VL: not shown |  |
|  |  | DVD259 (VEGF (seq. 1) and PLGF (seq. 1) DVD-Ig) (bispecific antibody, IgG1, HC vector V1 (wild-type hIgG1 constant), LC vector V2 (kappa constant); also called VD259H; VD259L) VH: EVQLVESGGGLVQPGGSLRLSCAASGYTFTNYGMNWVRQAPGKGLEWVGWINTYTGEPTYAADFKRRFTFSLDTSKSTAYLQMNSLRAEDTAVYYCAKYPHYYGSSHWYFDVWGQGTLVTVSSASTKGPQVQLQQSGAELVKPGASVKISCKASGYTFTDYYINWVKLAPGQGLEWIGWIYPGSGNTKYNEKFKGKATLTIDTSSSTAYMQLSSLTSEDTAVYFCVRDSPFFDYWGQGTLLTVSS VL: DIQMTQSPSSLSASVGDRVTITCSASQDISNYLNWYQQKPGKAPKVLIYFTSSLHSGVPSRFSGSGSGTDFTLTISSLQPEDFATYYCQQYSTVPWTFGQGTKVEIKRTVAAPDIVLTQSPDSLAVSLGERVTMNCKSSQSLLNSGMRKSFLAWYQQKPGQSPKLLIYWASTRESGVPDRFTGSGSGTDFTLTISSVQAEDVAVYYCKQSYHLFTFGSGTKLEIKR | EC50 (PlGF (Placental GF)): 1.3 nM |
|  | 116 nM | DVD034 (HGF (seq. 1) and RON (seq. 1) DVD-Ig) (bispecific antibody, IgG1, Outer AB012, inner AB005; HC vector V1 (wild-type hIgG1 constant), LC vector V2 (kappa constant); also called DVD034L) VH: QVQLVESGGGLVKPGGSLRLSCAASGFTFSDYYMSWIRQAPGKGLEWVSYISSSGSTIYYADSVKGRFTISRDNAKNSLYLQMNSLRAEDTAVYYCARDEYNSGWYVLFDYWGQGTLVTVSSASTKGPEVQLVQSGGGLVKPGGSLRLSCAASGFTFSSYAMHWVRQAPGKGLEWVAVISYDGSNKYYADSVKGRFTISRDNSKNTLYLQMNSLRAEDTAVYYCARFSGWPNNYYYYGMDVWGQGTTVTVSS VL: DIQMTQSPSSVSASVGDRVTITCRASQGISSWLAWYQQKPGKAPNLLIYEASSLQSGVPSRFGGSGSGTDFTLTISSLQPEDFATYYCQQANGFPWTFGQGTKVEIKRTVAAPDVVMTQSPLSLPVTPGEPASISCRSSQSLLHSNGFNYVDWYLQKPGQSPHLLIYFGSYRASGVPDRFSGSGSGTDFTLKISRVEAEDVGVYYCMQALQTPPWTFGQGTKVEIRR | EC50 (HGF (HGF-His tag)): 0.27 nM |
|  | 94.8 nM | DVD047 (VEGF (seq. 1) and RON (seq. 1) DVD-Ig) (bispecific antibody, IgG1, HC vector V1 (wild-type hIgG1 constant), LC vector V2 (kappa constant); also called DVD047H; DVD047L) VH: EVQLVESGGGLVQPGGSLRLSCAASGYTFTNYGMNWVRQAPGKGLEWVGWINTYTGEPTYAADFKRRFTFSLDTSKSTAYLQMNSLRAEDTAVYYCAKYPHYYGSSHWYFDVWGQGTLVTVSSASTKGPEVQLVQSGGGLVKPGGSLRLSCAASGFTFSSYAMHWVRQAPGKGLEWVAVISYDGSNKYYADSVKGRFTISRDNSKNTLYLQMNSLRAEDTAVYYCARFSGWPNNYYYYGMDVWGQGTTVTVSS VL: DIQMTQSPSSLSASVGDRVTITCSASQDISNYLNWYQQKPGKAPKVLIYFTSSLHSGVPSRFSGSGSGTDFTLTISSLQPEDFATYYCQQYSTVPWTFGQGTKVEIKRTVAAPDVVMTQSPLSLPVTPGEPASISCRSSQSLLHSNGFNYVDWYLQKPGQSPHLLIYFGSYRASGVPDRFSGSGSGTDFTLKISRVEAEDVGVYYCMQALQTPPWTFGQGTKVEIRR |  |
| 0.28 nM |  | AB063 (anti-ErbB3 (seq. 2) parent antibody) (antibody, IgG1, V domains shown, HC vector V1 (wild-type hIgG1 constant), LC vector V2 (kappa constant); also called AB063VH; AB063VL) VH: EVQLVESGGGLVQPGGSLRLSCAASGFTFSIYSMNWVRQAPGKGLEWVSYISSSSSTIYYADSVKGRFTISRDNAKNSLYLQMNSLRDEDTAVYYCARDRGDFDAFDIWGQGTMVTVSS VL: DIQMTQSPSSLSASVGDRVTITCQASQDITNYLNWYQQKPGKAPKLLIYDASNLETGVPSRFSGSGSGTDFTFTISSLQPEDIATYNCQQCENFPITFGQGTRLEIKR |  |
